Positions count from the first letter of the chain named. In names and notes the source's numbering stands. Where two headings read alike, the source gives them in different places.
T1: wild type BMP6 homodimer (Homo sapiens (Human), UniProt P22004 375-513, N-linked glycan at N80 (CHO-produced))
T1 construct: Produced in CHO cells; also called WT BMP6; BMP6/6
T1 sequence: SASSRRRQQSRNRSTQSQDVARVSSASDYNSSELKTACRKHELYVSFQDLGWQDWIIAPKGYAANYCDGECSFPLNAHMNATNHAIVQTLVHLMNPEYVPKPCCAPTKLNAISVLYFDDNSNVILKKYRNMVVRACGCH

T2: ALK2 receptor-human-IgG1-Fc fusion protein (human), Q04771
T2 chain: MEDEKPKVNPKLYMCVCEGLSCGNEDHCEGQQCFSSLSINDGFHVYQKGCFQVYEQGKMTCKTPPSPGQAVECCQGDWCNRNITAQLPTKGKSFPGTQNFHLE

T3: designer BMPE (N-linked glycan at N56 (CHO-produced))
T3 chain: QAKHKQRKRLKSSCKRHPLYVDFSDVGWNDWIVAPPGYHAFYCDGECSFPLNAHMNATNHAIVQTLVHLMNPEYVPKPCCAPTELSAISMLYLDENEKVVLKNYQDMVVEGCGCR

T4: ALK6 receptor-human-IgG1-Fc fusion protein (human, UniProt O00238 14-126)
T4 construct: extracellular domain; See note of m11; also called BMPRIb; not shown: human IgG1 Fc
T4 sequence (looked up): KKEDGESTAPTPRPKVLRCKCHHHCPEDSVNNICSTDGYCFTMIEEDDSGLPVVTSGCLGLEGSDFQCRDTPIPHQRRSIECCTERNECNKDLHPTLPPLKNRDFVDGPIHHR

B1: ALK2 receptor-human-IgG1-Fc fusion protein (Fc fusion, UniProt Q04771 21-123, looked up)
chain: T2 chain
notes: extracellular domain; also called ActRIa; ActRI; not shown: human IgG1 Fc
B2: wild type BMP2/6 heterodimer, P12643 283-396; P22004 375-513 (ligand)
chain 1: QAKHKQRKRLKSSCKRHPLYVDFSDVGWNDWIVAPPGYHAFYCHGECPFPLADHLNSTNHAIVQTLVNSVNSKIPKACCVPTELSAISMLYLDENEKVVLKNYQDMVVEGCGCR
chain 2: T1 sequence
B3: wild type BMP2 homodimer (ligand)
chain: B2 chain 1
modifications: N-linked glycan at N56 (CHO-produced)
notes: also called BMP2WT; WT BMP2
B4: BMPRII receptor-human-IgG1-Fc fusion protein (Fc fusion, UniProt Q13873 27-150, looked up)
chain: SQNQERLCAFKDPYQQDLGIGESRISHENGTILCSKGSTCYGLWEKSKGDINLVKQGCWSHIGDPQECHYEECVVTTTPPSIQNGTYRFCCCSTDLCNVNFTENFPPPDTTPLSPPHSFNRDET
notes: extracellular domain; See note of m11; also called BMPR IIA; BMPRIIA; not shown: human IgG1 Fc
B5: designer BMP-E-NR (ligand)
chain: QAKHKQRKRLKSSCKRHPLYVDFSDVGWNDWIVAPPGYHAFYCDGECSFPLNAHMNATNHAIVQTLVHLMNPEYVPKPCCAPTKLRPMSMLYYDDGQNIIKKDIQNMIVEECGCS
B6: designer BMP-GER-NR (ligand)
chain: B5 chain with V33I, P36R, H39A
B7: ActRIIB receptor-human-IgG1-Fc fusion protein (Fc fusion, UniProt Q13705 19-137, looked up)
chain: SGRGEAETRECIYYNANWELERTNQSGLERCEGEQDKRLHCYASWRNSSGTIELVKKGCWLDDFNCYDRQECVATEENPQVYFCCCEGNFCNERFTHLPEAGGPEVTYEPPPTAPTLLT
notes: extracellular domain; See note of m11; also called ATRIIB; not shown: human IgG1 Fc
B8: Noggin (other, UniProt Q13253 28-232, looked up)
chain: QHYLHIRPAPSDNLPLVDLIEHPDPIFDPKEKDLNETLLRSLLGGHYDPGFMATSPPEDRPGGGGGAAGGAEDLAELDQLLRQRPSGAMPSEIKGLEFSEGLAQGKKQRLSKKLRRKLQMWLWSQTFCPVLYAWNDLGSRFWPRYVKVGSCFSKRSCSVPEGMVCKPSKSVHLTVLRWRCQRRGGQRCGWIPIQYPIISECKCSC
B9: designer BMP-GER (ligand)
chain: T3 chain with V33I, P36R, H39A, S86N, M90V, L93F, E95D, E97S, K98N, V100I
notes: also called BMPGE P36R
B10: ALK3 receptor-human-IgG1-Fc fusion protein (Fc fusion, UniProt P36894 24-152, looked up)
chain: QNLDSMLHGTGMKSDSDQKKSENGVTLAPEDTLPFLKCYCSGHCPDDAINNTCITNGHCFAIIEEDDQGETTLASGCMKYEGSDFQCKDSPKAQLRRTIECCRTNLCNQYLQPTLPPVVIGPFFDGSIR
notes: extracellular domain; See note of m11; also called BMPRIa; not shown: human IgG1 Fc

How the values were obtained:
wild type BMP6 homodimer [1] = target: T1, wild type BMP6 homodimer; test: BLI (Octet), receptor-Fc on anti-human IgG tips; Table 13: weak binding, 700 nM
Method: (§1) The Octet QK analysis was performed at […] in TBS with 0.1% Tween-20. Samples were agitated at 1000 rpm. […] Each BMP was prepared as a sevenfold serial dilution (typically 200-3 nM in singlicate) plus buffer blanks. Each Receptor/BMP binding pair was run at least in duplicate. Association was monitored for 10 min and dissociation was followed for […] into buffer alone. Kinetic parameters (kon and koff) and affinities (KD) were calculated using the Octet Data Analysis software 6.0 using a partial binding 1:1 model following manufacturer's instructions.

[2] = target: T2, ALK2 receptor-human-IgG1-Fc fusion …; test: BLI (Octet), receptor-Fc on anti-human IgG tips; settings: remark: other sources report otherwise
[3] = target: B4; test: BLI (Octet), receptor-Fc on anti-human IgG tips
Method: as §1

[4] = target: B4; test: BLI (Octet), receptor-Fc on anti-human IgG tips; remark: listed apart in the source
Method: as §1

wild type BMP6 homodimer [5] = target: T1, wild type BMP6 homodimer; test: BLI (Octet), receptor-Fc on anti-human IgG tips
Method: as §1

[6] = target: T5, wild type BMP2/6 heterodimer (human, UniProt P12643 283-396; P22004 375-513); test: BLI (Octet), receptor-Fc on anti-human IgG tips
Method: as §1

wild type BMP6 homodimer [7] = target: T1, wild type BMP6 homodimer; test: BLI (Octet), receptor-Fc on anti-human IgG tips; remark: listed apart in the source
Method: as §1

[8] = target: T5, wild type BMP2/6 heterodimer; test: BLI (Octet), receptor-Fc on anti-human IgG tips; remark: listed apart in the source
Method: as §1

[9] = target: B7; test: ActRIIb affinity; method not given
Noggin = target: B8; test: Noggin affinity; method and unit not stated
designer BMPE = target: T3, designer BMPE; test: cell-based or functional assay
designer BMP-GER = target: B9; test: cell-based or functional assay
[10] = target: B1; test: BLI (Octet), receptor-Fc on anti-human IgG tips
Method: as §1

[11] = target: B10; test: BLI (Octet), receptor-Fc on anti-human IgG tips
Method: as §1

[12] = target: T4, ALK6 receptor-human-IgG1-Fc fusion …; test: BLI (Octet), receptor-Fc on anti-human IgG tips
Method: as §1

[13] = target: T6, ActRIIA receptor-human-IgG1-Fc fusion protein (human, UniProt P27037 20-135, limits assumed); test: BLI (Octet), receptor-Fc on anti-human IgG tips
T6 construct: extracellular domain; See note of m11; not shown: human IgG1 Fc
Method: as §1

[14] = target: B7; test: BLI (Octet), receptor-Fc on anti-human IgG tips
Method: as §1

T6 sequence (P27037 20-135 limits assumed): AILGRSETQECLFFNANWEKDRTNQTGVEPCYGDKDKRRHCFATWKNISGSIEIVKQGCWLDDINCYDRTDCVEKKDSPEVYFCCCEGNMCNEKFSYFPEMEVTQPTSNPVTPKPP

B1
Kd (wild type BMP6 homodimer [1]): 700 nM

B2
Kd [2]: 250 nM

B3
Kd [3]: 62 nM
Kd [4]: 62 nM

B4
Kd (wild type BMP6 homodimer [5]): 4 nM
Kd [6]: 3 nM
Kd (wild type BMP6 homodimer [7]): 4 nM
Kd [8]: 3 nM

B5
Kd [9]: 0.5 nM
Noggin Affinity (Noggin): 6

B6
Kd [9]: 0.07 nM
Noggin Affinity (Noggin): 7.5

B7
Kd (wild type BMP6 homodimer [5]): 0.5 nM
Kd [6]: 1 nM
Kd (wild type BMP6 homodimer [7]): 0.5 nM
Kd [8]: 1 nM

B8
IC50 (read off the curve) (designer BMPE): ~90 ng/mL
IC50 (read off the curve) (designer BMP-GER): ~40 ng/mL

B9
Kd [9]: 2 nM
Noggin Affinity (Noggin): 4
Kd [10]: 2 nM
Kd [11]: 2 nM
Kd [12]: 1 nM
Kd [13]: 2 nM
Kd [14]: 0.5 nM
Kd [4]: 3.5 nM

B10
Kd (wild type BMP6 homodimer [5]): 11 nM
Kd (wild type BMP6 homodimer [7]): 11 nM
